Legend:
[1] = target: Lag3 on cynomolgus PBMC/T cells (cynomolgus); experiment: flow cytometry, CD3/CD28-activated cynomolgus PBMC, 10 µg/ml
[2] = target: Lag3 on cynomolgus PBMC/T cells (cynomolgus); experiment: flow cytometry, non-activated cynomolgus PBMC, 10 µg/ml
[3] = target: Lag3 on Lag3+ NFAT Jurkat effector cells (Promega #CS194801); experiment: cell-based or functional assay
[4] = target: cynomolgus LAG3 on transiently transfected HEK293F cells (cynomolgus); experiment: flow cytometry on HEK293F cells transfected with cyno LAG3, 10 µg/ml

Chain of control antibody MDX25F7 (VH): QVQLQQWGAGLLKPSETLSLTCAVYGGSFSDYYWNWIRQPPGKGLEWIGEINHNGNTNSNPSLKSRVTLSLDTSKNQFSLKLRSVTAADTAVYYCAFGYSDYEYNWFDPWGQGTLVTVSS
Chain of control antibody MDX25F7 (VL): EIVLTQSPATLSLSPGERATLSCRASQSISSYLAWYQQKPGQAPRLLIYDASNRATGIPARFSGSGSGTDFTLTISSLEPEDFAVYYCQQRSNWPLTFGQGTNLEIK

Percentage of Lag3 positive cells [1] [%] | Percentage of Lag3 positive cells [2] [%] | EC50 of restoration of the NFAT luciferase signal (NFAT Lag3 reporter assay: Lag3+ Jurkat, Raji cells, SED) [3] [µg/mL] | IC50 for near-complete reduction of luciferase activity (modified NFAT Lag3 reporter assay, Lag3+ Jurkat cells alone) [3] [µg/mL] | LAG3 positive cells (%) [4] [%] | Signal intensity (Geo Mean) [4] [Geo Mean] | Substance
18.6 | 10.1 | – | – | – | – | BMS-986016 (antibody)
9.19 | 2.5 | – | – | – | – | DP47 (human isotype control) (antibody)
22.1 | 11.3 | 1.29 | 0.033 | 48.2 | 1560 | control antibody MDX25F7

From patent publication US20200354457A1
